Consider 19 substances from patent US20120219551A1.

Values joined by “and” are separate entries in the source; they are usually repeats but may differ in a detail not shown here. Equal values may be shown once.

For test [1], the target named is FcγRIIB, soluble dimeric protein (extracellular domain fused to the hinge-CH2-CH3 domain of human IgG2) (human) (UniProt P31994). The test is described as follows: ELISA. On the technique in general: In an ELISA, binding on a coated surface is turned into a signal by an enzyme label.
Sequence of FcγRIIB, soluble dimeric protein (extracellular domain fused to the hinge-CH2-CH3 domain of human IgG2) (human) (P31994 43-217): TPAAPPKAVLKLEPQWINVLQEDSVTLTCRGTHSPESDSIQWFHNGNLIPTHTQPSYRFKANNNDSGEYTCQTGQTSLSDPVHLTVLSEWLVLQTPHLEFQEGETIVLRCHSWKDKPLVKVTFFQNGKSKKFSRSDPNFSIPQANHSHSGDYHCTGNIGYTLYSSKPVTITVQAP
The target in test [2] is CD16A(F158) (human) (UniProt P08637). Nature of the test: relative off-rate wt/variant; method not given (BIAcore elsewhere).
Sequence of CD16A(F158) (human) (P08637 17-208): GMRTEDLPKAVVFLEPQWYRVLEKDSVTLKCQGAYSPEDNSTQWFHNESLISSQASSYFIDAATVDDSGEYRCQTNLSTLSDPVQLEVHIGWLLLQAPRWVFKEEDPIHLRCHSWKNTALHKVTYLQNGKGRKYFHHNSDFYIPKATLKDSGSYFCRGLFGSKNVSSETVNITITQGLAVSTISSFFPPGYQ
Test [3] deals with CD16A(V158) (human) (UniProt P08637). The test is described as above.
Sequence of CD16A(V158) (human) (P08637 17-208 F176V): as the sequence (P08637 17-208) above, with F160V counted along it
For test [4], the target named is CD32A-G2Ag (human) (UniProt P12318). The description is as above.
Sequence of CD32A-G2Ag (human) (P12318 34-217): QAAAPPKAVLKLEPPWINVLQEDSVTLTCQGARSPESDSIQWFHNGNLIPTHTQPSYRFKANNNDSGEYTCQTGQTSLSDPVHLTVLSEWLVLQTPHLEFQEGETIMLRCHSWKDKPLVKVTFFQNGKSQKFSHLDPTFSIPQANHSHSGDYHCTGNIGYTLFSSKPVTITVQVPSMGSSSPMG
The target of test [5] is CD32B-G2Ag (human) (UniProt P31994). Described as above.
Sequence of CD32B-G2Ag (human) (P31994 43-217): as the sequence (P31994 43-217) above
The target in test [6] is 2aHFcagl (FcγRIIA 131H-Fc fusion) (human) (UniProt P12318).
Sequence of 2aHFcagl (FcγRIIA 131H-Fc fusion) (human) (P12318 34-217): as the sequence (P12318 34-217) above
Test [7] has as its target FcγRIIIA (CD16A), V158 allotype (human) (UniProt P08637).
Test [8] addresses 2aRFcagl (FcγRIIA 131R-Fc fusion) (human) (UniProt P12318).
The target in test [9] is 2bFcagl (FcγRIIB-Fc fusion) (human) (UniProt P31994).
Sequence of 2bFcagl (FcγRIIB-Fc fusion) (human) (P31994 43-217): as the sequence (P31994 43-217) above
Test [10] concerns the target FcγRIIIA (CD16A), F158 allotype (human) (UniProt P08637).
Test [11] deals with soluble dimeric FcγRIIB-Fc fusion protein (extracellular domain of FcγRIIB fused to hinge-CH2-CH3 of human IgG2) (human) (UniProt P31994). The test is described as follows: ELISA.
Sequence of soluble dimeric FcγRIIB-Fc fusion protein (extracellular domain of FcγRIIB fused to hinge-CH2-CH3 of human IgG2) (human) (P31994 43-217): as above
In test [12] the target is soluble monomeric FcγRIIIA (extracellular region of FcγRIIIA joined to the linker-AVITAG sequence) (human) (UniProt P08637). Nature of the test: ELISA.
Sequence of soluble monomeric FcγRIIIA (extracellular region of FcγRIIIA joined to the linker-AVITAG sequence) (human) (P08637 17-208): as the sequence (P08637 17-208) above
For test [13], the target named is FcγRIIIA on natural killer cells of human donor PBMC (human) (UniProt P08637). The test is described as follows: cell-based or functional assay.
Sequence of FcγRIIIA on natural killer cells of human donor PBMC (human) (P08637 17-254): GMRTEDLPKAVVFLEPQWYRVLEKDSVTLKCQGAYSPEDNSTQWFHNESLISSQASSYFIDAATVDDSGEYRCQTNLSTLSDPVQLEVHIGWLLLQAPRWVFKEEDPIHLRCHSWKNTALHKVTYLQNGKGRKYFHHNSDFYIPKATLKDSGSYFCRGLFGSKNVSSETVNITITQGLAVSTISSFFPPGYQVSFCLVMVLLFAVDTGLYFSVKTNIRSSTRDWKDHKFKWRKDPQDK
The target of test [14] is soluble dimeric FcγRIIB-Fc fusion protein (extracellular domain of FcγRIIB fused to hinge-CH2-CH3 of human IgG2) (human) (UniProt P31994). The test is described as follows: SPR (BIAcore), Ab captured on BSA-FITC, separate fit 200/800 nM.
In test [15] the target is soluble monomeric FcγRIIIA (extracellular region of FcγRIIIA joined to the linker-AVITAG sequence) (human) (UniProt P08637). The description is as above.
Test [16] deals with soluble dimeric FcγRIIB-Fc fusion protein (extracellular domain of FcγRIIB fused to hinge-CH2-CH3 of human IgG2) (human) (UniProt P31994). Nature of the test: ELISA of FcγRIIB binding, OD printed beside the sensorgram (Table 15 prints 0.08).
The target of test [17] is soluble monomeric FcγRIIIA (extracellular region of FcγRIIIA joined to the linker-AVITAG sequence) (human) (UniProt P08637). Nature of the test: BIAcore: FcγRIIIA at 200 nM and 800 nM over ch4-4-20 captured on BSA-FITC; separate fit, average of the two concentrations (Table 14 prints 90). In general terms: SPR reads the build-up and loss of mass on a sensor chip optically.

The target is the same in test [18]. The test is described as follows: BIAcore: FcγRIIIA at 200 nM and 800 nM over ch4-4-20 captured on BSA-FITC; separate fit, average of the two concentrations (Table 14 prints 0.075).
Test [19] deals with soluble dimeric FcγRIIB-Fc fusion protein (extracellular domain of FcγRIIB fused to hinge-CH2-CH3 of human IgG2) (human) (UniProt P31994). The test is described as follows: SPR (BIAcore), Fc mutant in ch4-4-20, off rate relative to wild type.
For test [20], the target named is soluble monomeric FcγRIIIA 158V (extracellular region joined to linker-AVITAG) (human) (UniProt P08637). Described as above.
Sequence of soluble monomeric FcγRIIIA 158V (extracellular region joined to linker-AVITAG) (human) (P08637 17-208 F176V): as the sequence (P08637 17-208) above, with F160V counted along it
The target in test [21] is soluble dimeric FcγRIIB-Fc fusion protein (extracellular domain of FcγRIIB fused to hinge-CH2-CH3 of human IgG2) (human) (UniProt P31994). Nature of the test: BIAcore: FcγRIIB-Fc fusion at two concentrations over ch4-4-20 captured on BSA-FITC; separate fit, average of the two concentrations (Table 15 prints 0.085).
Test [22] has as its target FcγRIIA (CD32A), H131 allotype (human) (UniProt P12318). Nature of the test: BIAcore.
Test [23] concerns the target FcγRIIB (CD32B) (human) (UniProt P31994). The test is described as follows: BIAcore.
Test [24] has as its target FcγRIIIA (CD16A), F158 allotype (human) (UniProt P08637). The test is described as follows: BIAcore.
In test [25] the target is FcγRIIIA (CD16A), V158 allotype (human) (UniProt P08637). The test is described as follows: BIAcore.
Sequence of FcγRIIIA (CD16A), V158 allotype (human) (P08637 17-208 F176V limits assumed): as the sequence (P08637 17-208) above, with F160V counted along it
Test [26] has as its target FcγRIIB (CD32B) (human) (UniProt P31994). Nature of the test: BIAcore (as Table 27).
In test [27] the target is FcγRIIIA (CD16A), V158 allotype (human) (UniProt P08637). The test is described as follows: BIAcore (as Table 27).
The target of test [28] is FcγRIIB (CD32B) (human) (UniProt P31994). The test is described as follows: BIAcore (as Table 27); cells shifted one column to the left.
Sequence of FcγRIIB (CD32B) (human) (P31994 43-217 limits assumed): as the sequence (P31994 43-217) above
Test [29] has as its target FcγRIIIA, soluble monomeric protein (extracellular region joined to the linker-AVITAG sequence) (human) (UniProt P08637). The test is described as follows: yeast display FACS, biotinylated receptor chased with unlabeled receptor.
Target sequence in this assay (P08637 17-208 F176V limits assumed, form in doubt): as the sequence (P08637 17-208) above, with F160V counted along it
Test [30] shares this target. The test is described as follows: ELISA.
Target sequence in this assay (P08637 17-208 F176V limits assumed): as the sequence (P08637 17-208) above, with F160V counted along it
Test [31] deals with FcγRIIIA (CD16A), F158 allotype (human) (UniProt P08637). Nature of the test: BIAcore (as Table 27).
Sequence of FcγRIIIA (CD16A), F158 allotype (human) (P08637 17-208 limits assumed): as the sequence (P08637 17-208) above
Test [32] deals with FcγRIIA (CD32A), H131 allotype (human) (UniProt P12318). The test is described as follows: not stated; human FcRs.
Sequence of FcγRIIA (CD32A), H131 allotype (human) (P12318 34-217 limits assumed): as the sequence (P12318 34-217) above
Test [33] has as its target FcγRIIB (CD32B) (human) (UniProt P31994). Nature of the test: not stated; human FcRs.
The target in test [34] is FcγRIIIA (CD16A), F158 allotype (human) (UniProt P08637). The test is described as follows: not stated; human FcRs.
For test [35], the target named is FcγRIIIA (CD16A), V158 allotype (human) (UniProt P08637). The test is described as follows: not stated; human FcRs.

Sequence of 2aRFcagl (FcγRIIA 131R-Fc fusion) (human) (P12318 34-217 H167R): as the sequence (P12318 34-217) above, with H134R counted along it

Take “Fc variant D221Y, M252I, A330G, A339T, T359N, V422I, H433L (antibody)”: the fold change vs WT in [1] was found to be 6 fold.

As to “Antibody ch2.4G2 Fc Variant 51 (F243L, R292P, Y300L, V305I, P396L)”, the Koff ratio (wt/mut) in [2] stood at 8.3 wt/mut; in [3] it was 10.1 wt/mut; in test [4], 1.4 wt/mut; in test [5], 3.2 wt/mut.

As for “immunoglobulin with Fc variant L235Q, F243L, R292P, Y300L (antibody)”, the binding relative to wt (wt = 1) in [6] stood at 0.2; in [7], 1.8.

Take “Fc variant D399E, R292L, V185M (antibody)”: in test [1], the fold change vs WT came out at 0.5 fold.

Consider “immunoglobulin with Fc variant L234F, F243L, R292P, Y300L (antibody)”, for which the binding relative to wt (wt = 1) was found to be 0.3 in test [6]; 0.2 in test [8]; 0.2 in test [9]; 1.6 in [10]; 1.7 in test [7].

Regarding “ch4-4-20 Mut11 (R255L, F243L) (antibody)”, the ELISA, OD stood at 0.08 OD in test [11], 0.37 OD in test [12] and 0.1 OD in test [16]. In test [13], this substance yielded an ADCC, % of 32%. Also, the results for the Kd in [14], in test [15] and in test [17] were 82.3 nM, 90 nM and 91.8 nM, respectively. Also, the figures for the koff in test [14], in test [15] and in test [18] were 0.1 s⁻¹, 0.075 s⁻¹ and 0.073 s⁻¹, respectively. For the same substance, the kon – broadly, the rate constant with which the complex forms – in test [15] came to 822000 M⁻¹ s⁻¹.

“ch4-4-20 MgFc43 (Y319F, P352L, P396L) (antibody)” showed a Relative rate of lysis (ADCC, vs wild type ch4-4-20) in test [13] of 1.09. The Koff WT/Mut worked out at 2.29 in test [19] and 1.23 in test [20].

Regarding “ch4-4-20 wild type (chimeric anti-fluorescein antibody, IgG1)”, the ELISA, OD in test [11] is 0.4 OD; in test [12], 0.5 OD. Also, in [13], the ADCC, % came out at 17.5%. In addition, the figures for the Kd in [14] and in test [15] were 61.4 nM and 319 nM, respectively. In addition, the koff (in general, the first-order rate constant of dissociation) in test [14] turned out to be 0.085 s⁻¹; in test [21], 0.0847 s⁻¹.

The substance “ch4-4-20 MgFc41 (H268N, P396L) (antibody)” had a Relative rate of lysis (ADCC, vs wild type ch4-4-20) in [13] of 2.24. In addition, the Koff WT/Mut is 1.04 in [19] and 0.92 in test [20].

In the case of Fc variant K370N, S440N (antibody), in test [1], the fold change vs WT was 3.5 fold.

“immunoglobulin with Fc variant D270E, G316D, P396L, R416G (antibody)”: the Koff WT/Koff mutant came to 0.95 in [22]; 1.07 in test [23]; 0.94 in test [24]; 1.22 in test [25]; 1.07 in test [26]; 1.22 in test [27]. In [28], the Koff WT/Koff mutant came out at 1.07.

On to “Fc variant P396L (from UniProt P01857 1-330) (antibody)”, for which the loss of cell staining after 1 minute with unlabeled FcγRIIIA in [29] is 50%.

On to Fc variant S415I, L251F (antibody), for which the fold change vs WT in test [1] was 0.75 fold; in [30], 0.5 fold.

For the substance “Fc variant K317N, F423-deleted (antibody)”, the fold change vs WT in [1] is 7 fold.

Turning to “Antibody 2B6 3.5 Fc Variant 48 (F243L, R292P, V305I)”, the Koff ratio (wt/mut) in test [2] is 1.4 wt/mut; in test [3], 2.6 wt/mut; in test [4] it was 0.1 wt/mut; in test [5], 0.2 wt/mut.

In turn, “ch4-4-20 MgFc38 (K392T, P396L) (antibody)” displayed a Relative rate of lysis (ADCC, vs wild type ch4-4-20) in [13] of 3.07. Besides, the Koff WT/Mut in test [19] stood at 2.3; in test [20], 1.64.

As to “immunoglobulin with Fc variant L235I, F243L, R292P, Y300L (antibody)”, the binding relative to wt (wt = 1) in [6] amounted to 0.5; in test [8], 0.1; in test [9], 0.2; in test [10] it was 3.3; in test [7] it was 2.6.

As for “immunoglobulin with Fc variant F243L, R292P (antibody)”, the Koff WT/Koff mutant in test [22] was 0.34 and 0.52; in test [23] it was 0.12 and 0.16; in test [24], 0.6 and 1.67; in [25], 4.73 and 4; in [26] it was 0.12 and 0.16; in test [31], 1.67. Further, the Koff WT/Koff mutant in test [27] is 4.73 and 4; in [28], 0.12. Also, the fold change vs wild-type affinity in [32] was -0.9 fold; in test [33], -5.3 fold; in [34], 0.7 fold; in test [35], 3 fold.

As for Fc variant E258D, N384K (antibody), the fold change vs WT in [1] was 4 fold; in [30], 1.25 fold.
